These results are taken from patent publication US20020160010A1.

In this test the target is CD44 variant carrying the epitope coded by exon v6 on human Langerhans cells and dendritic cells (human) (UniProt P16070).

As to VFF18 (antibody), the binding of cultivated LCs and cytokine-activated DCs to paracortical T-cell zones of lymph node frozen sections was under 66 % inhibition.
